B1: Docking protein 3 (Homo sapiens), Q7L591 (parent)
chain: MTRGARLRSDARAQLNQLSLDGGTGSGQKGKCEEFPSSLSSVSPGLEAAALLLAVTMDPLETPIKDGILYQQHVKFGKKCWRKVWALLYAGGPSGVARLESWEVRDGGLGAAGDRSAGPGRRGERRVIRLADCVSVLPADGESCPRDTGAFLLTTTERSHLLAAQHRQAWMGPICQLAFPGTGEASSGSTDAQSPKRGLVPMEENSIYSSWQEVGEFPVVVQRTEAATRCQLKGPALLVLGPDAIQLREAKGTQALYSWPYHFLRKFGSDKGVFSFEAGRRCHSGEGLFAFSTPCAPDLCRAVAGAIARQRERLPELTRPQPCPLPRATSLPSLDTPGELREMPPGPEPPTSRKMHLAEPGPQSLPLLLGPEPNDLASGLYASVCKRASGPPGNEHLYENLCVLEASPTLHGGEPEPHEGPGSRSPTTSPIYHNGQDLSWPGPANDSTLEAQYRRLLELDQVEGTGRPDPQAGFKAKLVTLLSRERRKGPAPCDRP
partner: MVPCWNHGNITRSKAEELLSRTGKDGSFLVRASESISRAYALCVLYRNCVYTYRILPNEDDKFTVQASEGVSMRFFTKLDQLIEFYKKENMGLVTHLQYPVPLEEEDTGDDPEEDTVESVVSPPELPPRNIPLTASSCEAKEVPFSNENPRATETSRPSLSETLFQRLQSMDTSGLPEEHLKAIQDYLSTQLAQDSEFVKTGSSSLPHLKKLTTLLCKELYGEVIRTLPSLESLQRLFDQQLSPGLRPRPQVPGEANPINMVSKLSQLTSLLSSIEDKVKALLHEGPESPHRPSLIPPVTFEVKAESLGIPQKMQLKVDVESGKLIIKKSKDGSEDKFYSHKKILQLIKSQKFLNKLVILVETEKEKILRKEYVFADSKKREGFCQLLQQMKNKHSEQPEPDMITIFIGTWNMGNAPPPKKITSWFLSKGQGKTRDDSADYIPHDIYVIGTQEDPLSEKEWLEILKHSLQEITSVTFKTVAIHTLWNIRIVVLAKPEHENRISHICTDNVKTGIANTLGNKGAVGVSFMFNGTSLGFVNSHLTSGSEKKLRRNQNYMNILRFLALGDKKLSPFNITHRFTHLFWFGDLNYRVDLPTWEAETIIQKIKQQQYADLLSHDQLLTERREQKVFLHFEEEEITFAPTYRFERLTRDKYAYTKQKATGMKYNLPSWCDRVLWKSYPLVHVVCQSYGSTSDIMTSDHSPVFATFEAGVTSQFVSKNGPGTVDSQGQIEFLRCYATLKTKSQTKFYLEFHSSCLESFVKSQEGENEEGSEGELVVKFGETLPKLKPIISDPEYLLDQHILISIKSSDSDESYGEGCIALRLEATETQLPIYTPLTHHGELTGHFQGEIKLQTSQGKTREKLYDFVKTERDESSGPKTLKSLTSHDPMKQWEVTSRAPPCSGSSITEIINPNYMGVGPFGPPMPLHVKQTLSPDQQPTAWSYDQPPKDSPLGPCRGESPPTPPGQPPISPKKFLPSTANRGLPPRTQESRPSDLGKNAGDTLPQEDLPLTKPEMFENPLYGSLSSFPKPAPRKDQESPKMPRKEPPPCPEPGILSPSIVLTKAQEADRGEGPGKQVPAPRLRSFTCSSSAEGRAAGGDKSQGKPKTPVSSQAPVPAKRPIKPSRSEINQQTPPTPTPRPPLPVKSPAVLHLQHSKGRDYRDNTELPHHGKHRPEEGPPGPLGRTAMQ

Variants of: B1
Details: with ship1_human INPP5D

| effect of a mutation on the interaction | Variant |
| --- | --- |
| decreasing interaction | MTRGARLRSDARAQLNQLSLDGGTGSGQKGKCEEFPSSLSSVSPGLEAAALLLAVTMDPLETPIKDGILYQQHVKFGKKCWRKVWALLYAGGPSGVARLESWEVRDGGLGAAGDRSAGPGRRGERRVIRLADCVSVLPADGESCPRDTGAFLLTTTERSHLLAAQHRQAWMGPICQLAFPGTGEASSGSTDAQSPKFGLVPMEENSIYSSWQEVGEFPVVVQRTEAATRCQLKGPALLVLGPDAIQLREAKGTQALYSWPYHFLRKFGSDKGVFSFEAGRRCHSGEGLFAFSTPCAPDLCRAVAGAIARQRERLPELTRPQPCPLPRATSLPSLDTPGELREMPPGPEPPTSRKMHLAEPGPQSLPLLLGPEPNDLASGLYASVCKRASGPPGNEHLYENLCVLEASPTLHGGEPEPHEGPGSRSPTTSPIYHNGQDLSWPGPANDSTLEAQYRRLLELDQVEGTGRPDPQAGFKAKLVTLLSRERRKGPAPCDRP [R197F] |

From IntAct's records for PubMed 17290227
